Assay results: paper PMC11804915, “Single-stranded DNA binding to the transcription factor PafBC triggers the mycobacterial DNA damage response”

How the values were obtained:
Conditions in all cases: protein: recombinant; tags: C-terminal Strep on PafC; copies: 1;1; label: FAM; single strand
[1] = target: T1, PafBC, PafB R181A/R204A/R208A (Mycobacterium smegmatis, UniProt A4ZHT0;A0QZ41 1-331;1-318, R204A;R208A;PafB:R181A); test: EMSA; up to 16 uM; ssDNA EMSA: 22.5 mM Hepes-KOH pH 7.8, 135 mM NaCl, 20 mM KCl, 5 mM MgCl2, 1 mM DTT, 37 C 15 min, 10 nM DNA, 0-16 uM PafBC; RNAP EMSA: 20 mM Hepes-NaOH pH 8, 100 mM K-acetate, 36 mM NaCl, 10 mM MgCl2, 2 mM DTT, 37 C 30 min
T1 sequence 1: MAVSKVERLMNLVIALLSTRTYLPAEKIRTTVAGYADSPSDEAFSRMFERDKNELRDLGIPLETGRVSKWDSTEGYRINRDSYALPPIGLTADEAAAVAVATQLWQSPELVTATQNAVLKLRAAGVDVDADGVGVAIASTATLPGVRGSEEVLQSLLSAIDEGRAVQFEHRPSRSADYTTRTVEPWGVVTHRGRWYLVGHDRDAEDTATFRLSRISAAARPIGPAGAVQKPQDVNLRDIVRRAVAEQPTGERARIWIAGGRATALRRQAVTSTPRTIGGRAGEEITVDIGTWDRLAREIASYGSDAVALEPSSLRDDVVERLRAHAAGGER
T1 sequence 2: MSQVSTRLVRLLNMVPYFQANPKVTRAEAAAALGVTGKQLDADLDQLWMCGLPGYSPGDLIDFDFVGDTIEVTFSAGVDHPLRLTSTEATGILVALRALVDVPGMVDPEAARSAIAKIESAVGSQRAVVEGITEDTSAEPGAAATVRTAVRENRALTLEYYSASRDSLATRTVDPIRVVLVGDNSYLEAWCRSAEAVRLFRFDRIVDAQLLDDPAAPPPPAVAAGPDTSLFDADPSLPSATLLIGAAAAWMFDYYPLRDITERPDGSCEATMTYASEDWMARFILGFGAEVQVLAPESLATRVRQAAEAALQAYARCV

PafBC WT = target: T2, PafBC WT (Mycobacterium smegmatis, UniProt A4ZHT0;A0QZ41 1-331;1-318); test: EMSA; low micromolar affinity; ssDNA EMSA: 22.5 mM Hepes-KOH pH 7.8, 135 mM NaCl, 20 mM KCl, 5 mM MgCl2, 1 mM DTT, 37 C 15 min, 10 nM DNA, 0-16 uM PafBC; RNAP EMSA: 20 mM Hepes-NaOH pH 8, 100 mM K-acetate, 36 mM NaCl, 10 mM MgCl2, 2 mM DTT, 37 C 30 min
T2 sequence 1: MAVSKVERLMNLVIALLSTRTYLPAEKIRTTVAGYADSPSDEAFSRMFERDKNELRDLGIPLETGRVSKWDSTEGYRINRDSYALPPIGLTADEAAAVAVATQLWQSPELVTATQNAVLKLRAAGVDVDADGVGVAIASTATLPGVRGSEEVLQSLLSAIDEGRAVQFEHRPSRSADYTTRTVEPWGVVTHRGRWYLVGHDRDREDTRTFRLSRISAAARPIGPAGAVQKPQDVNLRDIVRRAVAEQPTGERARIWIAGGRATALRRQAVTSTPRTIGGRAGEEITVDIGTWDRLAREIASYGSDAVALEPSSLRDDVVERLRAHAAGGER
T2 sequence 2: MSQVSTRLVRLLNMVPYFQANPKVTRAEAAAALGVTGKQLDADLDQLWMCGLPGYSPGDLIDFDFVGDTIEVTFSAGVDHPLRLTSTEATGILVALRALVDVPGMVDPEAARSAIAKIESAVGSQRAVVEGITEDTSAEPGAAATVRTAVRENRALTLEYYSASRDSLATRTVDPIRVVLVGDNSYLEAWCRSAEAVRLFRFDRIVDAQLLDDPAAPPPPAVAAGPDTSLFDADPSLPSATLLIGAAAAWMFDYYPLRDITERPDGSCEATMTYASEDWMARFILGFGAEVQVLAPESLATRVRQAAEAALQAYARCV

PafBC, PafC WYL variant = target: T3, PafBC, PafC WYL variant (Mycobacterium smegmatis, UniProt A4ZHT0;A0QZ41 1-331;1-318, R201A;R204A); test: EMSA; affinity comparable to WT; ssDNA EMSA: 22.5 mM Hepes-KOH pH 7.8, 135 mM NaCl, 20 mM KCl, 5 mM MgCl2, 1 mM DTT, 37 C 15 min, 10 nM DNA, 0-16 uM PafBC; RNAP EMSA: 20 mM Hepes-NaOH pH 8, 100 mM K-acetate, 36 mM NaCl, 10 mM MgCl2, 2 mM DTT, 37 C 30 min
T3 sequence 1: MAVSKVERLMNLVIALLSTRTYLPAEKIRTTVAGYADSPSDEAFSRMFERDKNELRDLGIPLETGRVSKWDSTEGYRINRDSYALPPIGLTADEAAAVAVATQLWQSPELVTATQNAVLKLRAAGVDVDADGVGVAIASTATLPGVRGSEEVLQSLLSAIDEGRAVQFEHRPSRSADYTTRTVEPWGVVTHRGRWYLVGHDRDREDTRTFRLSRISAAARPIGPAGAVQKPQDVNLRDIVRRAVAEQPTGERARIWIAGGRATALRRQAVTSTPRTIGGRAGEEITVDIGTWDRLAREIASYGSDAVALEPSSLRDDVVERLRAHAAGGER
T3 sequence 2: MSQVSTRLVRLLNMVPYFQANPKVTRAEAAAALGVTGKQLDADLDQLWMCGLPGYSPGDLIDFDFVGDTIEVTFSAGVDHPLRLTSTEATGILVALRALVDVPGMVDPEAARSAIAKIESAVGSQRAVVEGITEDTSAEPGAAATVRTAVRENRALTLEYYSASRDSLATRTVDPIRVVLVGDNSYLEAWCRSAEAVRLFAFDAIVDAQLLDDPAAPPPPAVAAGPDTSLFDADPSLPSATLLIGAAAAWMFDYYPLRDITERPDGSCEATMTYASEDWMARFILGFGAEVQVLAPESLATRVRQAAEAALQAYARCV

TTTTTTTTTTTTTTTTTTTT (ssDNA) [dT20 ssDNA]: no binding [1]; binds (PafBC WT); binds (PafBC, PafC WYL variant).
